Assay results published in patent US20250289897A1 (Eli Lilly, published 2025).
Residue numbers refer to the chain shown, from its start. Each block holds one binder with its values, some of them ahead of it.

Experiments:
[1] = biological target: T1, human FcγRI (CD64) extracellular domain (human, UniProt P12314 16-292); experiment: SPR at 25 C, antibody captured on Protein A chip
T1 construct: extracellular domain; also called FcγRI ECD
Method: (§1) Briefly, the surfaces of all 4 flow cells were activated by injecting a 1:1 mixture of EDC/NHS for 7 minutes at 10 μL/minute. […] Un-reacted sites were blocked with a 7-minute injection of ethanolamine at 10 μL/minute. Injections of 2×10 μL of glycine pH 1.5 were used to remove any noncovalently associated protein.
(§2) For FcγRI binding, antibodies were diluted to 2.5 g/mL in running buffer (1x HBS-EP+, Teknova P/N H8022), and approximately 150 RU of each antibody was captured in flow cells 2 through 4 (RUcaptured). FC1 was the reference flow cell, therefore, no antibody was captured in FC1. […] Duplicate injections of each concentration were injected over all FCs at 40 μL/minute for 120 seconds followed by a 1200 second dissociation phase. Regeneration was performed by injecting 15 μL of 10 mM glycine pH 1.5 at 30 μL/minute over all FCs. Reference-subtracted data was collected as FC2-FC1, FC3-FC1, and FC4-FC1. The measurements were obtained at 25° C. The affinity (KD) was calculated using either steady state equilibrium analysis with the Scrubber 2 Biacore® Evaluation Software or a “1:1 (Langmuir) binding” model in BIA Evaluation.
(§3) For FcγRIIa, FcγRIIb, and FcγRIIIa binding, antibodies were diluted to 5 μg/mL in running buffer, and approximately 500 RU is captured in flow cells 2 through 4 (RUcaptured). FC1 is the reference flow cell. […] Duplicate injections of each concentration were injected over all FCs at 40 L/minute for 60 seconds followed by a 120 second dissociation phase. Regeneration was performed by injecting 15μL of 10 mM glycine pH 1.5 at 30 μL/minute over all FCs.

[2] = biological target: T2, human FcγRIIA_131H (CD32a) extracellular domain (human, UniProt P12318 34-217); experiment: SPR at 25 C, antibody captured on Protein A chip
T2 construct: extracellular domain
T2 sequence (looked up): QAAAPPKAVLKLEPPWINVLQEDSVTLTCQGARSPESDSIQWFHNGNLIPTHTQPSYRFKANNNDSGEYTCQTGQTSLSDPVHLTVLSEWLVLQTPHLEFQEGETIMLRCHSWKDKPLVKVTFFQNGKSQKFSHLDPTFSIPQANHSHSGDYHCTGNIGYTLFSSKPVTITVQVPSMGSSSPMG
Method: as §1, §2, §3

[3] = biological target: T3, human FcγRIIA_131R (CD32a) extracellular domain (human, UniProt P12318 34-217); experiment: SPR at 25 C, antibody captured on Protein A chip
T3 construct: extracellular domain
T3 sequence (looked up): T2 sequence (looked up) with H134R
Method: as §1, §2, §3

[4] = biological target: T4, human FcγRIIb (CD32b) extracellular domain (human, UniProt P31994 43-217); experiment: SPR at 25 C, antibody captured on Protein A chip
T4 construct: extracellular domain
T4 sequence (looked up): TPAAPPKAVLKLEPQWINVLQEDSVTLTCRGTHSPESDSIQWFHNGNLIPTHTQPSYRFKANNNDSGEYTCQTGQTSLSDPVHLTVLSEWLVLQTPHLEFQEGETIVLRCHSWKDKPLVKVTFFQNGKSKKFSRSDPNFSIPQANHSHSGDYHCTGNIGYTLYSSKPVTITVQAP
Method: as §1, §2, §3

[5] = biological target: T5, human FcγRIIIA_158V (CD16a) extracellular domain (human, UniProt P08637 17-208); experiment: SPR at 25 C, antibody captured on Protein A chip
T5 construct: extracellular domain
Method: as §1, §2, §3

[6] = biological target: T6, human FcγRIIIA_158F (CD16a) extracellular domain (human, UniProt P08637 17-208); experiment: SPR at 25 C, antibody captured on Protein A chip
T6 construct: extracellular domain
Method: as §1, §2, §3

[7] = biological target: neonatal Fc receptor (FcRn) on FcRn Affinity Column Gen2 (Roche, Cat #09430857001) (UniProt P55899 24-297; P61769 21-119, limits assumed); experiment: FcRn-HPLC (Roche FcRn Affinity Column Gen2), pH gradient 5.5 to 8.8 over 90 minutes
Method: Stock antibody solutions were diluted to 1 mg/mL into 20 mM MES, 140 mM NaCl, pH5.5. […] 20 μμL antibody injections were made followed by 10 minute column wash with 20 mM MES, 140 mM NaCl, pH5.5. Antibodies were then eluted by pH gradient elution into 20 mM Tris, 140 mM NaCl, pH8.8 over 90 minutes. Chromatograms were blank-subtracted to remove baseline drift.

CYNO LEPR-ECD-His = biological target: T7, CYNO LEPR-ECD-His (cynomolgus monkey, UniProt Q9MYL0 22-837 (rhesus entry)); experiment: SPR (Biacore T200), antibody captured on Protein A/G chip, His-tagged LEPR-ECD as analyte, 1:1 fit; mean n=3, SD 2.0E-9
T7 construct: also called cynomolgus monkey LEPR
T7 sequence: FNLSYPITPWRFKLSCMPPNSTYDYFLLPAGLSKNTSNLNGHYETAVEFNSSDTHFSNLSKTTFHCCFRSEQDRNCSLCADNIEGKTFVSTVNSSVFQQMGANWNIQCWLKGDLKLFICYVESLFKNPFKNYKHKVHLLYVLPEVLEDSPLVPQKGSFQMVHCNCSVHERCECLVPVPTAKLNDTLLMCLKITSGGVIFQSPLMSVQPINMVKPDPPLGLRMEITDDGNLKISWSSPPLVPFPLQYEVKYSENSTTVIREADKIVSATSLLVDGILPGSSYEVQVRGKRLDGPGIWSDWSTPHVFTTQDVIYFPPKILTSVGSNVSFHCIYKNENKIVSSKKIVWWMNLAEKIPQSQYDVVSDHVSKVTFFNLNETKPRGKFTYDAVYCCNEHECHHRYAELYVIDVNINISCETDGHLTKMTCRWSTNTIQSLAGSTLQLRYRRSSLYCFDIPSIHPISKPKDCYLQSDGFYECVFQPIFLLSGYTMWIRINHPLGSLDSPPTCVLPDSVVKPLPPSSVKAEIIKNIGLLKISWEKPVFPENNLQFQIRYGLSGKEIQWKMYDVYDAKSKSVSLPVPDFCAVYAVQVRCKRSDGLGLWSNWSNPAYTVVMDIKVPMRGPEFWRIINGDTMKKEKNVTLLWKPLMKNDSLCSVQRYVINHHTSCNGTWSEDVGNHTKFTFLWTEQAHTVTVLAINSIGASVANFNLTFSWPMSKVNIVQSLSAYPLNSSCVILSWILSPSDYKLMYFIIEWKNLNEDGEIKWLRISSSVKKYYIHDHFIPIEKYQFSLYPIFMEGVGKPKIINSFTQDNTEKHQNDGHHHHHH
Method: (§4) His-tagged ECDs were expressed and purified for each species and used for affinity analysis. A Protein A/G chip (Xantec, Cat #PAGHC200M) was utilized in this experiment with HBS-EP +0.01% BSA as running buffer. Antibodies were diluted to 1 μg/mL in running buffer and captured to a single flow cell on the chip surface. Each species of LEPR-ECD was diluted to 1000 nM in running buffer followed by 2-fold serial dilution. Each ligand concentration was injected over all flow cells at 100 L/min for 150 seconds followed by a 600 second dissociation phase. Regeneration was performed by injecting 10 mM glycine pH1.5 for 30 seconds at 10 μL/min. Data were analyzed in Biacore T200 Evaluation Software 3.1 by flow-cell 1 reference subtraction along with 0 nM blank subtraction. Data were fit globally using a “1:1 Binding” binding model to determine the on-rate (kₐ) and off-rate (kd) for each ligand. The affinity (KD) was calculated from the binding kinetics according to the relationship KD=kₐ/kd. Data reported as mean±standard deviation of experimental replicates.

canine LEPR-ECD-His = biological target: T8, canine LEPR-ECD-His (canine); experiment: SPR (Biacore T200), antibody captured on Protein A/G chip, His-tagged LEPR-ECD as analyte, 1:1 fit; mean n=2, SD 1.9E-8
T8 chain: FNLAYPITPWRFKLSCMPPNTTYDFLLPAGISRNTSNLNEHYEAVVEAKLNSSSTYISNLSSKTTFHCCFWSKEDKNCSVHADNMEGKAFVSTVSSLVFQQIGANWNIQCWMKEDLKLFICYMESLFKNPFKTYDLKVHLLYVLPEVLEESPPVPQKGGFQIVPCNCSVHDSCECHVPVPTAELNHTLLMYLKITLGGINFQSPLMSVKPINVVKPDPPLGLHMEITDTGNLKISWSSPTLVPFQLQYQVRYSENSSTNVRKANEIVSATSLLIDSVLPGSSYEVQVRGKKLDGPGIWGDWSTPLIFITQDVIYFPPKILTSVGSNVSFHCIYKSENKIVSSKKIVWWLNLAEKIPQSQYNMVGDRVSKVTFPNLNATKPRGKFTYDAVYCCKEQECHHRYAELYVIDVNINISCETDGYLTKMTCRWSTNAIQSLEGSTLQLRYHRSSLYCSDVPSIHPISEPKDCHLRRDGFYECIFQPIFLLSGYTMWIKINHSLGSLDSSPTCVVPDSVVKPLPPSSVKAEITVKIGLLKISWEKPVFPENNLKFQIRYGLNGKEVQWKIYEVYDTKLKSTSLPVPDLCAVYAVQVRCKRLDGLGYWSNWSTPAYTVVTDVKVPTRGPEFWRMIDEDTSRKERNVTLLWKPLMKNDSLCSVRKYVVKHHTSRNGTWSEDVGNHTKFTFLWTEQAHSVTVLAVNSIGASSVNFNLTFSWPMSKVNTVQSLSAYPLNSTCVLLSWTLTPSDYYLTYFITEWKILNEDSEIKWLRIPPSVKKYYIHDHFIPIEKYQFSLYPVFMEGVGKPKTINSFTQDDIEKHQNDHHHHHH
Method: as §4

T5 sequence (P08637 17-208 F176V): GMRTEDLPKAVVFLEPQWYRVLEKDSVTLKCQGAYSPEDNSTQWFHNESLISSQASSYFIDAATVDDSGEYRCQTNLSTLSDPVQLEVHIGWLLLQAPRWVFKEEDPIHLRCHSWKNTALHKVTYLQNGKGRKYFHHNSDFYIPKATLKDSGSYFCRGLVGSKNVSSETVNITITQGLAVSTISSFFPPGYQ
T1 sequence (P12314 16-292): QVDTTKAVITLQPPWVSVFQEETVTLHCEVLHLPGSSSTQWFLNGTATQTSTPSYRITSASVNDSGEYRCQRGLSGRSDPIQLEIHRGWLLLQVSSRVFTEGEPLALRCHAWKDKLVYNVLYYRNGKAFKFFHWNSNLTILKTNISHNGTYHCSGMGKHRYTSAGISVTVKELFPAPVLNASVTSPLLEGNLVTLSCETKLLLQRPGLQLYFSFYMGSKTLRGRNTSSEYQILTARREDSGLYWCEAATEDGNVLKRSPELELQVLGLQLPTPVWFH
T6 sequence (P08637 17-208): as the sequence (P08637 17-208 F176V) above, with V160F counted along it

Retention Time [7]: 80.1 min | Kd (CYNO LEPR-ECD-His): 19 nM
B1: Antibody A (antibody, human IgG1, kappa, L234A L235A)
heavy: EVQLLESGGGLVQPGGSLRLSCAASGFTFSSFAMSWVRQAPGKGLEWVSAISGSGGSTYSADSVRGRFTISRDNSKNTLYLQMNSLRAEDTAVYYCAKDQGDWDFLFDYWGQGTLVTVSSASTKGPSVFPLAPSSKSTSGGTAALGCLVKDYFPEPVTVSWNSGALTSGVHTFPAVLQSSGLYSLSSVVTVPSSSLGTQTYICNVNHKPSNTKVDKRVEPKSCDKTHTCPPCPAPEAAGGPSVFLFPPKPKDTLYITREPEVTCVVVSVSHEDPEVKFNWYVDGVEVHNAKTKPREEQYNSTYRVVSVLTVLHQDWLNGKEYKCKVSNKALPAPIEKTISKAKGQPREPQVYTLPPSREEMTKNQVSLTCLVKGFYPSDIAVEWESNGQPENNYKTTPPVLDSDGSFFLYSKLTVDKSRWQQGNVFSCSVMHEALHNHYTQKSLSLSPGK
light: DIQMTQSPSFLSASVGDRVTITCRASQGISSSLAWYQQKPGKAPKLLIYTASTLQSGVPSRFSGSGSGTEFTLTISSLQPEDFATYYCQQLIYYPFTFGQGTKVEIKRTVAAPSVFIFPPSDEQLKSGTASVVCLLNNFYPREAKVQWKVDNALQSGNSQESVTEQDSKDSTYSLSSTLTLSKADYEKHKVYACEVTHQGLSSPVTKSFNRGEC
notes: IgG1 mAb
binding result [1]: no binding (tested: FcγRI ECD tested up to 200 nM) | binding result [2]: no binding (tested: receptor ECD tested up to 10 µM) | binding result [3]: no binding (tested: receptor ECD tested up to 10 µM) | binding result [4]: no binding (tested: receptor ECD tested up to 10 µM) | binding result [5]: no binding (tested: receptor ECD tested up to 10 µM) | binding result [6]: no binding (tested: receptor ECD tested up to 10 µM)

Kd (canine LEPR-ECD-His): 330 nM
B2: Antibody B (antibody, human IgG1, kappa, L234A L235A, V domains shown)
VH: EVQLLESGGGLVQPGGSLRLSCAASGFTFSSFAMSWVRQAPGKGLEWVSAISGSGGSTYSADSVRGRFTISRDNSKNTLYLQMNSLRAEDTAVYYCAKDQGDWDFLFDYWGQGTLVTVSS
VL: DIQMTQSPSFLSASVGDRVTITCRVSQGISSSLAWYQQKPGKAPKLLIYTASTLQSGVPSRFSGSGSGTEFTLTISSLQPEDFATYYCQQLNYYPFTFGQGTKVEIKR
